Target: Rpc160-HTP (largest subunit of RNAPIII, C-terminally His6–TEV–Protein A tagged) (S. cerevisiae) (UniProt P04051)
Test: affinity purification with mass spectrometry; Rpc160-HTP as bait; as a3 but lysate treated with RNase A (20 μg/ml, 20 min at 25°C); label-free quantitative MS

Sequence of UniProt P04051 (P04051 whole entry): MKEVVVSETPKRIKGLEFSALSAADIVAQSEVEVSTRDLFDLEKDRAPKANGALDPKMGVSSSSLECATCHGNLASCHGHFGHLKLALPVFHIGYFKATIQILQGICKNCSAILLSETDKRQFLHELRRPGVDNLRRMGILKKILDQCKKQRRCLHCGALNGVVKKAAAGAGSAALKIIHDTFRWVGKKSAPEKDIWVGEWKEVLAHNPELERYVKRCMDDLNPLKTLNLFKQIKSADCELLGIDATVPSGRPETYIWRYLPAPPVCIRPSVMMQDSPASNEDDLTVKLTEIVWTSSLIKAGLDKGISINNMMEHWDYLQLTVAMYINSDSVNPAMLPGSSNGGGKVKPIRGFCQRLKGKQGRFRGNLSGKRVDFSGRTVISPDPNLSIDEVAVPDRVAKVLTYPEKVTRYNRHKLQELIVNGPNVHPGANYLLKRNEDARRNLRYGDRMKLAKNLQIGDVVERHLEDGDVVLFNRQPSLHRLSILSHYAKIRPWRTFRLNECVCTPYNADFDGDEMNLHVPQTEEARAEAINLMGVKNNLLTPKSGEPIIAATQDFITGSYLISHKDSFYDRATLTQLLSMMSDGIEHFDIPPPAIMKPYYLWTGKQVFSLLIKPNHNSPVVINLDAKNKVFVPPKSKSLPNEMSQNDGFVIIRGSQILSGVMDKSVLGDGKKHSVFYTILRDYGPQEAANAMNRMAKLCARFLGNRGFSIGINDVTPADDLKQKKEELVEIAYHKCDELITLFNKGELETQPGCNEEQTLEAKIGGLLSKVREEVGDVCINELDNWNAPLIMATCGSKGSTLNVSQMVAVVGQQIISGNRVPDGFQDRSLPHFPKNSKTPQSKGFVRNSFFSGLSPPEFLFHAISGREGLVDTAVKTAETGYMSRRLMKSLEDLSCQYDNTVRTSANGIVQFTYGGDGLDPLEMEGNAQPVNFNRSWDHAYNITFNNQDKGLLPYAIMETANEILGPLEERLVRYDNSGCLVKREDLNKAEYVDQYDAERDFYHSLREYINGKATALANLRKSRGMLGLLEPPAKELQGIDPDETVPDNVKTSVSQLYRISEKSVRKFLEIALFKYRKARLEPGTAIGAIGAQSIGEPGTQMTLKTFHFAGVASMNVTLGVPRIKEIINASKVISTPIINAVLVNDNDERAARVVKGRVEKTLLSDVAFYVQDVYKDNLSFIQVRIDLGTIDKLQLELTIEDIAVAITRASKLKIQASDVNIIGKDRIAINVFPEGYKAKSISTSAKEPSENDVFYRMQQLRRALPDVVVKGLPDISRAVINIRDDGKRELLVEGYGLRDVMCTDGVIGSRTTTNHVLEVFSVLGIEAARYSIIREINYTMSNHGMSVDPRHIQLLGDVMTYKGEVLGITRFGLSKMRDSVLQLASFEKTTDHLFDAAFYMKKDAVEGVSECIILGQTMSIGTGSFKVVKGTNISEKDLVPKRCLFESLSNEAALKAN

fold decrease of RNAPIII-bound Sen1 with RNase A treatment against no treatment: 2 fold
Substance: Sen1 (untagged, in cells expressing Rpc160-HTP, SEN1 background) (from UniProt Q00416 1-2231) (natural protein)

Source: article PMC9278858
